Laboratory results as given in paper PMC4063679 (Structure (London, England : 1993), 2011).
Like-named read-outs stand apart in the source and are kept apart here. Where no end group is shown, it is not given here.

Legend:
[1] = biological target: T1, His-tagged I-BAR domain of IRSp53, wild type (human, UniProt Q9UQB8-4 1-250); test: ITC
T1 sequence: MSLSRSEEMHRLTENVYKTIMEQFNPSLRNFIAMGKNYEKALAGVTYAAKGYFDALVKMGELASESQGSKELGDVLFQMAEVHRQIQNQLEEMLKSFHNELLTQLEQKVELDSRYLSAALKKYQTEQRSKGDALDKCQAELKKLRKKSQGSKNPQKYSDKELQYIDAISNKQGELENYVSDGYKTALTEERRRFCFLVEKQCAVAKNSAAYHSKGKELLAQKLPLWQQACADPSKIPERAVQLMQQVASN

[2] = biological target: T1, His-tagged I-BAR domain of IRSp53, wild …; test: ITC; remark: listed apart in the source

Binder: GTVQNPYADVKT-NH2 [EHEC Tir-derived dodecapeptide GTVQNPYADVKT (residues 452-463)]
- Kd [1]: 59 ± 10 µM

Binder: SEVVNPYAEVGG-NH2 [EPEC Tir-derived 12-mer peptide SEVVNPYAEVGG (residues 448-459)]
- Kd [2]: 37 ± 14 µM
